# System: Escherichia coli TOP10
# Assay: shrunken log2 fold change of peptide-encoding DNA abundance (4.5 h post-induction vs induction); higher = less antimicrobial activity (less host growth inhibition)
# Settings: time post-induction: 4.5 h; library: site-saturation at positions 5, 18, 19, 20
# 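Also: peptides expressed intracellularly from a pBAD plasmid library in pooled LB shake-flask culture, induced with 0.3% L-arabinose, DNA abundance read by NGS, three biological replicates, DESeq2 with apeglm shrinkage.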
row,Sequence,shrunken log2 fold change
1,RRIRRRPPRLPRPRPRPHSKPRP,-0.198
2,RRIRGRPPRLPRPRPRPIQQPRP,0.0149
3,RRIRTRPPRLPRPRPRPDIRPRP,0.0296
4,RRIRSRPPRLPRPRPRPTSWPRP,0.239
5,RRIRCRPPRLPRPRPRPFFSPRP,-0.242
6,RRIRYRPPRLPRPRPRPNQSPRP,-0.268
7,RRIRARPPRLPRPRPRPYPGPRP,0.0384
8,RRIRIRPPRLPRPRPRPQNLPRP,-0.261
9,RRIRGRPPRLPRPRPRPYDRPRP,0.136
10,RRIRMRPPRLPRPRPRPDQHPRP,0.237
11,RRIRARPPRLPRPRPRPDMEPRP,-0.0243
12,RRIRERPPRLPRPRPRPVDYPRP,0.0839
13,RRIRCRPPRLPRPRPRPCHSPRP,-1.91
14,RRIRSRPPRLPRPRPRPMQFPRP,0.0683
15,RRIRIRPPRLPRPRPRPKMVPRP,-0.159
16,RRIRVRPPRLPRPRPRPDYGPRP,-0.133
17,RRIRHRPPRLPRPRPRPFKNPRP,-0.0803
18,RRIRVRPPRLPRPRPRPGNVPRP,-0.393
19,RRIRLRPPRLPRPRPRPGPIPRP,0.195
20,RRIRPRPPRLPRPRPRPWHYPRP,0.0497
21,RRIRVRPPRLPRPRPRPKRCPRP,-0.0118
22,RRIRRRPPRLPRPRPRPTQYPRP,0.571
23,RRIRHRPPRLPRPRPRPVLAPRP,0.126
24,RRIRFRPPRLPRPRPRPNTTPRP,-0.0257
25,RRIRNRPPRLPRPRPRPLLCPRP,0.0225

row,Sequence,shrunken log2 fold change
1,RRIRVRPPRLPRPRPRPEQPPRP,0.515
2,RRIRDRPPRLPRPRPRPNWGPRP,0.061
3,RRIRDRPPRLPRPRPRPICYPRP,0.204
4,RRIRLRPPRLPRPRPRPLLVPRP,-0.12
5,RRIRVRPPRLPRPRPRPNINPRP,-0.608
6,RRIRHRPPRLPRPRPRPYHLPRP,-0.085
7,RRIRSRPPRLPRPRPRPRYGPRP,0.0513
8,RRIRIRPPRLPRPRPRPVRKPRP,-0.48
9,RRIRQRPPRLPRPRPRPNENPRP,-0.0578
10,RRIRGRPPRLPRPRPRPYRHPRP,0.161
11,RRIRHRPPRLPRPRPRPVVCPRP,-0.184
12,RRIRDRPPRLPRPRPRPCGMPRP,0.0207
13,RRIRQRPPRLPRPRPRPEQHPRP,-0.0137
14,RRIRNRPPRLPRPRPRPTHVPRP,0.216
15,RRIRGRPPRLPRPRPRPMNKPRP,1.69
16,RRIRIRPPRLPRPRPRPSSIPRP,-0.169
17,RRIRMRPPRLPRPRPRPCGPPRP,0.481
18,RRIRQRPPRLPRPRPRPRIGPRP,0.341
19,RRIRDRPPRLPRPRPRPIYLPRP,2.37
20,RRIRVRPPRLPRPRPRPLPHPRP,0.0915
21,RRIRGRPPRLPRPRPRPNSFPRP,-0.0356
22,RRIRCRPPRLPRPRPRPDGPPRP,0.185
23,RRIRVRPPRLPRPRPRPHNFPRP,-0.418
24,RRIRWRPPRLPRPRPRPCTDPRP,0.0992
25,RRIRVRPPRLPRPRPRPGREPRP,-0.00937

row,Sequence,shrunken log2 fold change
1,RRIRARPPRLPRPRPRPLTDPRP,0.163
2,RRIRKRPPRLPRPRPRPTYEPRP,0.367
3,RRIRFRPPRLPRPRPRPADMPRP,-0.155
4,RRIRIRPPRLPRPRPRPKDPPRP,-0.111
5,RRIRGRPPRLPRPRPRPVFKPRP,0.193
6,RRIRRRPPRLPRPRPRPFIMPRP,-0.251
7,RRIRPRPPRLPRPRPRPYNTPRP,-0.928
8,RRIRRRPPRLPRPRPRPLYDPRP,-0.0854
9,RRIRRRPPRLPRPRPRPCSYPRP,-0.19
10,RRIRGRPPRLPRPRPRPMEIPRP,-0.0753
11,RRIRWRPPRLPRPRPRPPFTPRP,0.21
12,RRIRPRPPRLPRPRPRPGYYPRP,-0.45
13,RRIRFRPPRLPRPRPRPTCHPRP,-0.231
14,RRIRCRPPRLPRPRPRPYDVPRP,-0.0223
15,RRIRGRPPRLPRPRPRPEVCPRP,0.955
16,RRIRPRPPRLPRPRPRPDIGPRP,-0.0448
17,RRIRIRPPRLPRPRPRPWLPPRP,-0.325
18,RRIRDRPPRLPRPRPRPINPPRP,-0.277
19,RRIRNRPPRLPRPRPRPRAIPRP,0.064
20,RRIRWRPPRLPRPRPRPMWHPRP,-0.139
21,RRIRWRPPRLPRPRPRPLTWPRP,0.302
22,RRIRCRPPRLPRPRPRPDNRPRP,-0.132
23,RRIRFRPPRLPRPRPRPMPLPRP,-0.417
24,RRIRARPPRLPRPRPRPAMDPRP,0.568
25,RRIRKRPPRLPRPRPRPCQWPRP,-0.0983

# Reference: the supplement of paper PMC9112550, “Optimization of the antimicrobial peptide Bac7 by deep mutational scanning” (BMC Biology, 2022)
